{"source": "paper PMC8136485", "about": "“Were Ancestral Proteins Less Specific?” (Molecular Biology and Evolution, 2021)", "origin": "cited, not measured here", "target": "NCX1 peptide (Homo sapiens) (UniProt P32418)", "sequence (P32418 36-973)": "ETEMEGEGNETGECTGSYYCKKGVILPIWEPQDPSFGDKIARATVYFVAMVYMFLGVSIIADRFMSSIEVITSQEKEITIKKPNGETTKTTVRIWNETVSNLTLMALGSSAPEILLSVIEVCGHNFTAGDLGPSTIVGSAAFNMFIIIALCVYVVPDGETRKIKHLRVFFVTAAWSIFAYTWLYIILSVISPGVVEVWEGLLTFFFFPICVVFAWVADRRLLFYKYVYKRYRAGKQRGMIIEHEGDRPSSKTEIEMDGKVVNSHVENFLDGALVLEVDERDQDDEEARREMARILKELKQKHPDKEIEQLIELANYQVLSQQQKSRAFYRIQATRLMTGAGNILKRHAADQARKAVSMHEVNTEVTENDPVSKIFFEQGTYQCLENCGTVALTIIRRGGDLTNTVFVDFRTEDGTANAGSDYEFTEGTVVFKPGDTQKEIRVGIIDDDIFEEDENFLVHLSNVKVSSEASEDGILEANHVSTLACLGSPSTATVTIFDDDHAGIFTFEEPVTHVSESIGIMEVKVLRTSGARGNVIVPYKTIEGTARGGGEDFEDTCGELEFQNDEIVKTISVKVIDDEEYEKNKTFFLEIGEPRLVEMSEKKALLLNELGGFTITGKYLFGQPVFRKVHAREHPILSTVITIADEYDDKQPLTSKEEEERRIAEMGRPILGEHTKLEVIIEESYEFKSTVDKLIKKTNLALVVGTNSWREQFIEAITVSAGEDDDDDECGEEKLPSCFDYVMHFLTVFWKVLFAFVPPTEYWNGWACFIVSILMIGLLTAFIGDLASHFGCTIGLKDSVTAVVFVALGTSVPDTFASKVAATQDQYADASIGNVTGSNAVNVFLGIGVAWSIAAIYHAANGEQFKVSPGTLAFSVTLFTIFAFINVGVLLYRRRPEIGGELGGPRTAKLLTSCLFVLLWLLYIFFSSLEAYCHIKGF", "details": "cited from earlier work", "data": [{"substance": "hA5 (S100A5) (from UniProt P33763)", "values": [{"measurement": "Kd", "value": 18, "unit": "µM"}]}]}
